Experimental data as given in article PMC6276866 (Circulation, 2018).

B1: recombinant B56α protein (natural protein)
chain: not shown
B2: purified recombinant mutant AnkB (p.Q1283H) (SPR) (natural protein)
chain: MMNEDAAQKSDSGEKFNGSSQRRKRPKKSDSNASFLRAARAGNLDKVVEYLKGGIDINTCNQNGLNALHLAAKEGHVGLVQELLGRGSSVDSATKKGNTALHIASLAGQAEVVKVLVKEGANINAQSQNGFTPLYMAAQENHIDVVKYLLENGANQSTATEDGFTPLAVALQQGHNQAVAILLENDTKGKVRLPALHIAARKDDTKSAALLLQNDHNADVQSKMMVNRTTESGFTPLHIAAHYGNVNVATLLLNRGAAVDFTARNGITPLHVASKRGNTNMVKLLLDRGGQIDAKTRDGLTPLHCAARSGHDQVVELLLERGAPLLARTKNGLSPLHMAAQGDHVECVKHLLQHKAPVDDVTLDYLTALHVAAHCGHYRVTKLLLDKRANPNARALNGFTPLHIACKKNRIKVMELLVKYGASIQAITESGLTPIHVAAFMGHLNIVLLLLQNGASPDVTNIRGETALHMAARAGQVEVVRCLLRNGALVDARAREEQTPLHIASRLGKTEIVQLLLQHMAHPDAATTNGYTPLHISAREGQVDVASVLLEAGAAHSLATKKGFTPLHVAAKYGSLDVAKLLLQRRAAADSAGKNGLTPLHVAAHYDNQKVALLLLEKGASPHATAKNGYTPLHIAAKKNQMQIASTLLNYGAETNIVTKQGVTPLHLASQEGHTDMVTLLLDKGANIHMSTKSGLTSLHLAAQEDKVNVADILTKHGADQDAHTKLGYTPLIVACHYGNVKMVNFLLKQGANVNAKTKNGYTPLHQAAQQGHTHIINVLLQHGAKPNATTANGNTALAIAKRLGYISVVDTLKVVTEEVTTTTTTITEKHKLNVPETMTEVLDVSDEEGDDTMTGDGGEYLRPEDLKELGDDSLPSSQFLDGMNYLRYSLEGGRSDSLRSFSSDRSHTLSHASYLRDSAVMDDSVVIPSHQVSTLAKEAERNSYRLSWGTENLDNVALSSSPIHSGFLVSFMVDARGGAMRGCRHNGLRIIIPPRKCTAPTRVTCRLVKRHRLATMPPMVEGEGLASRLIEVGPSGAQFLGPVIVEIPHFAALRGKERELVVLRSENGDSWKEHFCDYTEDELNEILNGMDEVLDSPEDLEKKRICRIITRDFPQYFAVVSRIKQDSNLIGPEGGVLSSTVVPQVQAVFPEGALTKRIRVGLQAQPMHSELVKKILGNKATFSPIVTLEPRRRKFHKPITMTIPVPKASSDVMLNGFGGDAPTLRLLCSITGGTTPAQWEDITGTTPLTFVNECVSFTTNVSARFWLIDCRQIQESVTFASHVYREIICVPYMAKFVVFAKSHDPIEARLRCFCMTDDKVDKTLEQQENFAEVARSRDVEVLEGKPIYVDCFGNLVPLTKSGQHHIFSFFAFKENRLPLFVKVRDTTQEPCGRLSFMKEPKSTRGLVHQAICNLNITLPIYTKESESDQEQEEEIDMTSEKNPQDEQERIEERLAYIADHLGFSWTELARELDFTEEQIHQIRIENPNSLQDQSHALLKYWLERDGKHATDTNLVECLTKINRMDIVHLMETNTEPLQERISHSYAEIEQTITLDHSEGFSVLQEELCTAQHKQKEEQAVSKESETCDHPPIVSEEDISVGYSTFQDGVPKTEGDSSATALFPQTHKEQVQQDFSGKMQDLPEESSLEYQQEYFVTTPGTETSETQKAMIVPSSPSKTPEEVSTPAEEEKLYLQTPTSSERGGSPIIQEPEEPSEHREESSPRKTSLVIVESADNQPETCERLDEDAAFEKGDDMPEIPPETVTEEEYIDEHGHTVVKKVTRKIIRRYVSSEGTEKEEIMVQGMPQEPVNIEEGDGYSKVIKRVVLKSDTEQSEDNNE

Legend:
[1] = molecular target: purified recombinant AnkB, wild type (SPR) (UniProt Q01484-2 1-1872); assay: SPR
[2] = molecular target: B1; assay: SPR

Kd [1] [µM]	Kd [2] [µM]	Binder
1.64 ± 0.05		B1
	22.2 ± 6.42	B2
